We go through 94 variants from the supplement of paper PMC10567573.

The labels stand for the following.
B1: SNAP91 (parent)
chain: FAAPSPATTASPAKVDSSGVIDLF
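Also: lentivirally expressed fusions sorted by FACS into six bins by GFP to DsRed ratio, PSI derived from sequencing read proportions per bin multiplied by bin number.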

This data set covers variants of B1. Briefly: protein stability index of a GFP-peptide fusion (GPS, HEK-293T) (PSI 1-6); higher = more stable. As to conditions: c terminus: a fixed tail appended.
Regarding FAAPSPATCASPAKVDSSGVIDLF [T9C], the protein stability index came out at 2.43.

For FAAPSPATYASPAKVDSSGVIDLF [T9Y], the protein stability index turned out to be 1.67. To FAAPSPATNASPAKVDSSGVIDLF [T9N] belongs 2.58; to FAAPSPATAASPAKVDSSGVIDLF [T9A], 3.02; to FAAPSPATDASPAKVDSSGVIDLF [T9D], 3.22. As for FAAPSPATTASPAKVDSSGTIDLF [V20T], the protein stability index came to 2.51.

Take FAAPSPATTASPAKVDSSGCIDLF [V20C]: the protein stability index was 2.08. Turning to FAAPSPATTASPAKVDSSGMIDLF [V20M], the protein stability index was found to be 2.5. Under FAAPSPATTASPAKVDSSGGIDLF [V20G] stands 2.77; under FAAPSPATTASPAKVDSSGEIDLF [V20E], 3.42. To FAAPSPATTASPAKVDSSGRIDLF [V20R] belongs 2.63. To FAAPSPATTASPAKVDSSGDIDLF [V20D] belongs 3.22.

Consider FAAPSPATTASPAKVDSSGNIDLF [V20N], for which the protein stability index is 2.77.

With FAAPSPATTASPAKVDSSGHIDLF [V20H], the protein stability index amounted to 2.72. To FAAPSPATTASWAKVDSSGVIDLF [P12W] belongs 2.04.

With FAAPSPATTASKAKVDSSGVIDLF [P12K], the protein stability index came to 1.96.

In the case of FAAPSPATTASGAKVDSSGVIDLF [P12G], the protein stability index was 1.92.

FAAPSPATTASHAKVDSSGVIDLF [P12H]: the protein stability index was 2.27. To FAAPSPATTASEAKVDSSGVIDLF [P12E] belongs 2.97. Under FAAPSPATTASNAKVDSSGVIDLF [P12N] stands 2.6; under FAAPSPATTASRAKVDSSGVIDLF [P12R], 2.2; under FAAPSPATTASYAKVDSSGVIDLF [P12Y], 1.97.

FAAPSPTTTASPAKVDSSGVIDLF [A7T]: the protein stability index amounted to 2.11. Under FAAPSPKTTASPAKVDSSGVIDLF [A7K] stands 2.65. Take FAAPSPVTTASPAKVDSSGVIDLF [A7V]: the protein stability index is 2.53. Under FAAPSPWTTASPAKVDSSGVIDLF [A7W] stands 3; under FAAPSPLTTASPAKVDSSGVIDLF [A7L], 1.9; under FAAPSPCTTASPAKVDSSGVIDLF [A7C], 1.75. To FAAPSPMTTASPAKVDSSGVIDLF [A7M] belongs 2.23; to FAAPSPQTTASPAKVDSSGVIDLF [A7Q], 2.84. To FAAPSPATTASPAKVDSSGVIDLM [F24M] belongs 3.72; to FAAPSPATTASPAKVDSSGVIDLW [F24W], 1.22; to FAAPSPATTASPAKVDSSGVIDLV [F24V], 3.99. Take FAAPSPATTASPAKVDSSGVIDLT [F24T]: the protein stability index was found to be 3.75. As for FAAPSPATTASPAKVDSSGVIDLH [F24H], the protein stability index came out at 4.52. To FAAPSPATTASPAKVDSSGVIDLY [F24Y] belongs 2.88; to FAAPSPATTASPAKVDSSGVIDLN [F24N], 4.1. To FAAPSPATTASPAKVDSSGVIDLE [F24E] belongs 4.51. As to FAAPSPATTASPAKVDSSGVIDLQ [F24Q], the protein stability index was 3.85.

For the variant FAAPSPATTASPAKDDSSGVIDLF [V15D], the protein stability index came out at 2.68. Take FAAPSPATTASPAKLDSSGVIDLF [V15L]: the protein stability index is 2.23. To FAAPSPATTASPAKYDSSGVIDLF [V15Y] belongs 1.98; to FAAPSPATTASPAKGDSSGVIDLF [V15G], 2.41. In the case of FAAPSPATTASPAKNDSSGVIDLF [V15N], the protein stability index stood at 2.52. Under FAAPSPATTASPAKADSSGVIDLF [V15A] stands 2.52; under FAAPSPATTASPAKFDSSGVIDLF [V15F], 1.97. To FAAPSPATTASPAKMDSSGVIDLF [V15M] belongs 2.56; to FAAPSPATTASPAKSDSSGVIDLF [V15S], 2.93. Under FAAPSPATTASPAKCDSSGVIDLF [V15C] stands 1.97; under FAAPSPATTASPAKTDSSGVIDLF [V15T], 2.82. Turning to FAAPSPATTASPAKVDMSGVIDLF [S17M], the protein stability index is 2.16. To FAAPSPATTASPAKVDLSGVIDLF [S17L] belongs 1.96; to FAAPSPATTASPAKVDFSGVIDLF [S17F], 2.21; to FAAPSPATTASPAKVDKSGVIDLF [S17K], 2.29.

For FAAPSPATTASPAKVDGSGVIDLF [S17G], the protein stability index was found to be 2.33.

As for FAAPSPATTASPAKVDRSGVIDLF [S17R], the protein stability index came out at 2.27.

For FAAPSPATTASPAKVDYSGVIDLF [S17Y], the protein stability index amounted to 2.7.

For the variant FAAPSPATTASPAKVDCSGVIDLF [S17C], the protein stability index came to 1.86. Under FAAPSPATTASPAKVDPSGVIDLF [S17P] stands 2.39; under FAAPSPATTQSPAKVDSSGVIDLF [A10Q], 2.27. To FAAPSPATTISPAKVDSSGVIDLF [A10I] belongs 2.42. Under FAAPSPATTYSPAKVDSSGVIDLF [A10Y] stands 1.72; under FAAPSPATTGSPAKVDSSGVIDLF [A10G], 1.64.

With FAAPSPATTKSPAKVDSSGVIDLF [A10K], the protein stability index was 2.23. Under FAAPSPATTMSPAKVDSSGVIDLF [A10M] stands 2.24.

In the case of FADPSPATTASPAKVDSSGVIDLF [A3D], the protein stability index came to 2.29. To FAGPSPATTASPAKVDSSGVIDLF [A3G] belongs 2.32; to FASPSPATTASPAKVDSSGVIDLF [A3S], 2.61; to FAQPSPATTASPAKVDSSGVIDLF [A3Q], 2.31. To FAEPSPATTASPAKVDSSGVIDLF [A3E] belongs 2.17. For FAMPSPATTASPAKVDSSGVIDLF [A3M], the protein stability index was 1.92. Under FAIPSPATTASPAKVDSSGVIDLF [A3I] stands 2.28. Under FANPSPATTASPAKVDSSGVIDLF [A3N] stands 1.86. Take FAAPSPATTASPAKVDSSNVIDLF [G19N]: the protein stability index was 2.59.

Turning to FAAPSPATTASPAKVDSSQVIDLF [G19Q], the protein stability index is 2.69. Under FAAPSPATTASPAKVDSSWVIDLF [G19W] stands 1.55; under FAAPSPATTASPAKVDSSVVIDLF [G19V], 2.07.

Take FAAPSPATTASPAKVDSSIVIDLF [G19I]: the protein stability index came out at 1.41. For the variant FAAPSPATTASPAKVDSSPVIDLF [G19P], the protein stability index amounted to 2.06. On to FAAPSPATTASPAKVDSSTVIDLF [G19T], for which the protein stability index was determined as 2.57. Under FAAPSPATTASPAKVDSSFVIDLF [G19F] stands 1.26; under FAAPSPATTASPAKVDSSMVIDLF [G19M], 1.92.

Regarding FAAPSPATTASPAKVDSPGVIDLF [S18P], the protein stability index worked out at 2.83. To FAAPSPATTASPAKVDSNGVIDLF [S18N] belongs 2.43. To FAAPSPATTASPAKVDSEGVIDLF [S18E] belongs 2.72.

With FAAPSPATTASPAKVDSCGVIDLF [S18C], the protein stability index came to 2.1. To FAAPSPATTASPAKVDSTGVIDLF [S18T] belongs 2.49; to FAAPSPATTASPAKVDSDGVIDLF [S18D], 2.97; to FAAPSPATTASPAKVDSHGVIDLF [S18H], 2.12. To FAAPSPATTASPAKVDSMGVIDLF [S18M] belongs 2.06; to FAAPWPATTASPAKVDSSGVIDLF [S5W], 2.62. FAAPNPATTASPAKVDSSGVIDLF [S5N]: the protein stability index was 2.59.

Consider FAAPRPATTASPAKVDSSGVIDLF [S5R], for which the protein stability index amounted to 2.1.

As for FAAPQPATTASPAKVDSSGVIDLF [S5Q], the protein stability index stood at 2.34.
